Assay results reported in paper PMC9814759, “Enzymatic kinetic resolution of desmethylphosphinothricin indicates that phosphinic group is a bioisostere of carboxyl group” (Communications Chemistry, 2020).

Columns and labels:
[1] = substrate: N[C@@H](CC[PH](=O)O)C(=O)O; assay: purified protein; type: biochemical, Escherichia coli; settings: 0.1 M Pyridine/HCl, pH 4.6, 0.1 mM DTT, 40 µM PLP, discontinuous assay
[2] = substrate: N[C@@H](CCC(=O)O)C(=O)O; assay: purified protein; type: biochemical, Escherichia coli; settings: 0.1 M Pyridine/HCl, pH 4.6, 0.1 mM DTT, 40 µM PLP, discontinuous assay

B1: EcGadB (Escherichia coli K-12) (protein)
chain: MDKKQVTDLRSELLDSRFGAKSISTIAESKRFPLHEMRDDVAFQIINDELYLDGNARQNLATFCQTWDDENVHKLMDLSINKNWIDKEEYPQSAAIDLRCVNMVADLWHAPAPKNGQAVGTNTIGSSEACMLGGMAMKWRWRKRMEAAGKPTDKPNLVCGPVQICWHKFARYWDVELREIPMRPGQLFMDPKRMIEACDENTIGVVPTFGVTYTGNYEFPQPLHDALDKFQADTGIDIDMHIDAASGGFLAPFVAPDIVWDFRLPRVKSISASGHKFGLAPLGCGWVIWRDEEALPQELVFNVDYLGGQIGTFAINFSRPAGQVIAQYYEFLRLGREGYTKVQNASYQVAAYLADEIAKLGPYEFICTGRPDEGIPAVCFKLKDGEDPGYTLYDLSERLRLRGWQVPAFTLGGEATDIVVMRIMCRRGFEMDFAELLLEDYKASLKYLSDHPKLQGIAQQNSFKHT
notes: expressed and purified EcGadB (DEAE chromatography); no tag stated; PLP-dependent homohexamer; EC 4.1.1.15
- Km [1]: 39.82 ± 5.66 mM
- kcat [1]: 13.9 ± 0.58 s⁻¹
- kcat/Km [1]: 350 ± 50 M⁻¹ s⁻¹
- Km [2]: 0.84 ± 0.09 mM
- kcat [2]: 78.2 ± 2.06 s⁻¹
- kcat/Km [2]: 92800 ± 10300 M⁻¹ s⁻¹
